T1: internally quenched peptide probe with CM AWGLSGRS (SEQ ID NO: 686)
T1 chain: SAWGLSGRSGKR

T2: internally quenched peptide probe with CM LSGKSPWGL (SEQ ID NO: 178)
T2 chain: SLSGKSPWGLGKR

T3: internally quenched peptide probe with CM LSGRSPAGL (SEQ ID NO: 694)
T3 chain: SLSGRSPAGLGKR

T4: internally quenched peptide probe with CM LSGRSPWGL (SEQ ID NO: 177)
T4 chain: SLSGRSPWGLGKR

T5: internally quenched peptide probe with CM PAGLSGRS (SEQ ID NO: 687)
T5 chain: SPAGLSGRSGKR

T6: internally quenched peptide probe with CM PWALSGRS (SEQ ID NO: 688)
T6 chain: SPWALSGRSGKR

T7: internally quenched peptide probe with CM PWGASGRS (SEQ ID NO: 689)
T7 chain: SPWGASGRSGKR

T8: internally quenched peptide probe with CM PWGLAGRS (SEQ ID NO: 690)
T8 chain: SPWGLAGRSGKR

T9: internally quenched peptide probe with CM PWGLSARS (SEQ ID NO: 691)
T9 chain: SPWGLSARSGKR

T10: internally quenched peptide probe with CM PWGLSG (SEQ ID NO: 684)
T10 chain: SPWGLSGGGSKR

T11: internally quenched peptide probe with CM PWGLSGAS (SEQ ID NO: 692)
T11 chain: SPWGLSGASGKR

T12: internally quenched peptide probe with CM PWGLSGKS (SEQ ID NO: 150)
T12 chain: SPWGLSGKSGKR

T13: internally quenched peptide probe with CM PWGLSGR (SEQ ID NO: 163)
T13 chain: SPWGLSGRGSKR

T14: internally quenched peptide probe with CM PWGLSGRA (SEQ ID NO: 693)
T14 chain: SPWGLSGRAGKR

T15: internally quenched peptide probe with CM PWGLSGRS (SEQ ID NO: 12)
T15 chain: SPWGLSGRSGKR

T16: internally quenched peptide probe with CM WGLSGRS (SEQ ID NO: 685)
T16 chain: GSWGLSGRSGKR

B1: matrix metalloprotease 2 (MMP2) (protein)
chain: YNFFPRKPKWDKNQITYRIIGYTPDLDPETVDDAFARAFQVWSDVTPLRFSRIHDGEADIMINFGRWEHGDGYPFDGKDGLLAHAFAPGTGVGGDSHFDDDELWTLGEGQVVRVKYGNADGEYCKFPFLFNGKEYNSCTDTGRSDGFLWCSTTYNFEKDGKYGFCPHEALFTMGGNAEGQPCKFPFRFQGTSYDSCTTEGRTDGYRWCGTTEDYDRDKKYGFCPETAMSTVGGNSEGAPCVFPFTFLGNKYESCTSAGRSDGKMWCATTANYDDDRKWGFCPDQGYSLFLVAAHEFGHAMGLEHSQDPGALMAPIYTYTKNFRLSQDDIKGIQELYGASPDIDLGTGPTPTLGPVTPEICKQDIVFDGIAQIRGEIFFFKDRFIWRTVTPRDKPMGPLLVATFWPELPEKIDAVYEAPQEEKAVFFAGNEYWIYSASTLERGYPKPLTSLGLPPDVQRVDAAFNWSKNKKTYIFAGDKFWRYNEVKKKMDPGFPKLIADAWNAIPDNLDAVVDLQGGGHSYFFKGAYYLKLENQSLKSVKFGSIKSDWLGC
B2: membrane type serine protease 1 (MT-SP1) (protein)
chain: VVGGTDADEGEWPWQVSLHALGQGHICGASLISPNWLVSAAHCYIDDRGFRYSDPTQWTAFLGLHDQSQRSAPGVQERRLKRIISHPFFNDFTFDYDIALLELEKPAEYSSMVRPICLPDASHVFPAGKAIWVTGWGHTQYGGTGALILQKGEIRVINQTTCENLLPQQITPRMMCVGFLSGGVDSCQGDSGGPLSSVEADGRIFQAGVVSWGDGCAQRNKPGVYTRLPLFRDWIKENTGV

Assays:
[1] = target: T1, internally quenched peptide probe with …
[2] = target: T2, internally quenched peptide probe with …
[3] = target: T3, internally quenched peptide probe with …
[4] = target: T4, internally quenched peptide probe with …
[5] = target: T5, internally quenched peptide probe with …
[6] = target: T6, internally quenched peptide probe with …
[7] = target: T7, internally quenched peptide probe with …
[8] = target: T8, internally quenched peptide probe with …
[9] = target: internally quenched peptide probe with CM PWGLRS (SEQ ID NO: 48)
[10] = target: T9, internally quenched peptide probe with …
[11] = target: T10, internally quenched peptide probe with …
[12] = target: T11, internally quenched peptide probe with …
[13] = target: T12, internally quenched peptide probe with …
[14] = target: T13, internally quenched peptide probe with …
[15] = target: T14, internally quenched peptide probe with …
[16] = target: T15, internally quenched peptide probe with …
[17] = target: internally quenched peptide probe with CM RSPWGL (SEQ ID NO: 90)
[18] = target: T16, internally quenched peptide probe with …

Protein | Probe Cleavage (pM/s) [1] [pM/s] | Probe Cleavage (pM/s) [2] [pM/s] | Probe Cleavage (pM/s) [3] [pM/s] | Probe Cleavage (pM/s) [4] [pM/s] | Probe Cleavage (pM/s) [5] | Probe Cleavage (pM/s) [6] [pM/s] | Probe Cleavage (pM/s) [7] [pM/s] | Probe Cleavage (pM/s) [8] [pM/s] | Probe Cleavage (kcat/KM (M^-1 s^-1)) [9] [M⁻¹ s⁻¹] | Probe Cleavage (pM/s) [9] [pM/s] | Probe Cleavage (pM/s) [10] [pM/s] | Probe Cleavage (pM/s) [11] [pM/s] | Probe Cleavage (pM/s) [12] [pM/s] | Probe Cleavage (kcat/KM (M^-1 s^-1)) [13] [M⁻¹ s⁻¹] | Probe Cleavage (pM/s) [13] [pM/s] | Probe Cleavage (pM/s) [14] [pM/s] | Probe Cleavage (pM/s) [15] [pM/s] | Probe Cleavage (kcat/KM (M^-1 s^-1)) [16] [M⁻¹ s⁻¹] | Probe Cleavage (pM/s) [16] [pM/s] | Probe Cleavage (kcat/KM (M^-1 s^-1)) [17] [M⁻¹ s⁻¹] | other results
B1 | 816 | 37.1 | 2080 | 48.9 | Above the limit of quantification | 4890 | 202 | 4870 | 140000 | 3800 | 9580 | 3100 | 4370 | 59000 | 1620 | 6540 | 6100 | 78000 | 2920 | 260000 | Probe Cleavage (pM/s) [17]: 11700 pM/s; Probe Cleavage (pM/s) [18]: 66.4 pM/s
B2 | 17000 | 595 | 1520 | 812 | 16500 pM/s | 15300 | 18000 | 15800 | 31000 | 1230 | 13100 | 5.1 | 13 | 80000 | 2330 | 1290 | 7620 | 150000 | 7810 | 48000 | Probe Cleavage (pM/s) [17]: 2390 pM/s; Probe Cleavage (pM/s) [18]: 10600 pM/s

Reference: patent US20250215095
